# B1: NLV2 TCR alpha chain (CDR3α only) (parent)
# chain: AGPMKTSYDKVI
# B2: NLV3 TCR beta chain (CDR3β only) (parent)
# chain: ASSPTGGSPSPLH
# partner: MLVPMVATV
# Variants of: B1
# Assay: T-Switch: Jurkat TCRβ−/− cells expressing a CDR3 saturation-mutagenesis library, stained with two peptide-HLA-A*02:01 tetramers (original and novel peptide) plus anti-CD3, FACS-sorted into four gates, gDNA sequenced
# Details: with both tetramers (double-negative gate, binds neither): HLA-A*02:01 with … and with …, tetramers 1 µg/mL, 30 min on ice, SP, DP and SW gates expanded about 10 days between rounds ('two to three rounds of selection' in the Methods), gate DN: OPPOSITE: higher = more of the variant in the gate that binds neither peptide = LESS binding (or no expression; inferred). Fold enrichment of the CDR3 variant in one FACS gate of a two-tetram, unresolved parent, parent is a CDR3 fragment, scale: fold enrichment, numbering: sequential-on-construct, sequence starts at 1
row,Variant,enrichment
1,[…] (CDR3 as printed); A1E derived by comparing it with the table's wild-type CDR3 AGPMKTSYDKVI,0.767
2,[…] (CDR3 as printed); A1F derived by comparing it with the table's wild-type CDR3 AGPMKTSYDKVI,0.884
3,[…] (CDR3 as printed); A1C derived by comparing it with the table's wild-type CDR3 AGPMKTSYDKVI,0.8
4,[…] (CDR3 as printed); A1H derived by comparing it with the table's wild-type CDR3 AGPMKTSYDKVI,0.735
5,[…] (CDR3 as printed); A1G derived by comparing it with the table's wild-type CDR3 AGPMKTSYDKVI,0.876
6,[…] (CDR3 as printed); A1D derived by comparing it with the table's wild-type CDR3 AGPMKTSYDKVI,0.746

# Same assay, conditions: with both tetramers (double-positive gate): HLA-A*02:01 with … and with …, tetramers 1 µg/mL, 30 min on ice, SP, DP and SW gates expanded about 10 days between rounds ('two to three rounds of selection' in the Methods), gate DP: higher = more of the variant in the gate that binds both peptides. Fold enrichment of the CDR3 variant in one FACS gate of a two-tetramer stain. SP/DP/SW gates were expanded and re-sorted bef, unresolved parent, parent is a CDR3 fragment, scale: fold enrichment, numbering: sequential-on-construct, sequence starts at 1
row,Variant,enrichment
1,[…] (CDR3 as printed); A1E derived by comparing it with the table's wild-type CDR3 AGPMKTSYDKVI,0
2,[…] (CDR3 as printed); A1F derived by comparing it with the table's wild-type CDR3 AGPMKTSYDKVI,0
3,[…] (CDR3 as printed); A1C derived by comparing it with the table's wild-type CDR3 AGPMKTSYDKVI,0
4,[…] (CDR3 as printed); A1H derived by comparing it with the table's wild-type CDR3 AGPMKTSYDKVI,0
5,[…] (CDR3 as printed); A1G derived by comparing it with the table's wild-type CDR3 AGPMKTSYDKVI,0
6,[…] (CDR3 as printed); A1D derived by comparing it with the table's wild-type CDR3 AGPMKTSYDKVI,0

# Variants of: B2
# Assay: as above
# Details: with HLA-A*02:01 with peptide … (NLV 3-1, the original bait), tetramers 1 µg/mL, 30 min on ice, DP and SW gates expanded about 10 days between rounds ('two to three rounds of selection' in the Methods), gate SP: higher = more of the variant in the gate that binds the original peptide and not the novel one = retained original binding. Fold enrichment of the CDR3 variant in one FACS gate of a two-tetra, unresolved parent, parent is a CDR3 fragment, scale: fold enrichment, numbering: sequential-on-construct, sequence …
row,Variant,enrichment
1,[…] (CDR3 as printed); S2M derived by comparing it with the table's wild-type CDR3 ASSPTGGSPSPLH,0
2,[…] (CDR3 as printed); P9D derived by comparing it with the table's wild-type CDR3 ASSPTGGSPSPLH,0
3,[…] (CDR3 as printed); P11F derived by comparing it with the table's wild-type CDR3 ASSPTGGSPSPLH,0
4,[…] (CDR3 as printed); P9I derived by comparing it with the table's wild-type CDR3 ASSPTGGSPSPLH,0
5,[…] (CDR3 as printed); S10I derived by comparing it with the table's wild-type CDR3 ASSPTGGSPSPLH,0
6,[…] (CDR3 as printed); P9W derived by comparing it with the table's wild-type CDR3 ASSPTGGSPSPLH,0
7,[…] (CDR3 as printed); S8G derived by comparing it with the table's wild-type CDR3 ASSPTGGSPSPLH,0
8,[…] (CDR3 as printed); P11W derived by comparing it with the table's wild-type CDR3 ASSPTGGSPSPLH,0
9,[…] (CDR3 as printed); P9F derived by comparing it with the table's wild-type CDR3 ASSPTGGSPSPLH,0
10,[…] (CDR3 as printed); P4R derived by comparing it with the table's wild-type CDR3 ASSPTGGSPSPLH,0.316
11,[…] (CDR3 as printed); S2Q derived by comparing it with the table's wild-type CDR3 ASSPTGGSPSPLH,0
12,[…] (CDR3 as printed); T5H derived by comparing it with the table's wild-type CDR3 ASSPTGGSPSPLH,1.12
13,[…] (CDR3 as printed); P4H derived by comparing it with the table's wild-type CDR3 ASSPTGGSPSPLH,0
14,[…] (CDR3 as printed); S10N derived by comparing it with the table's wild-type CDR3 ASSPTGGSPSPLH,0
15,[…] (CDR3 as printed); S2P derived by comparing it with the table's wild-type CDR3 ASSPTGGSPSPLH,0
16,[…] (CDR3 as printed); L12S derived by comparing it with the table's wild-type CDR3 ASSPTGGSPSPLH,1.12
17,[…] (CDR3 as printed); S10D derived by comparing it with the table's wild-type CDR3 ASSPTGGSPSPLH,0.543
18,[…] (CDR3 as printed); T5C derived by comparing it with the table's wild-type CDR3 ASSPTGGSPSPLH,0
19,[…] (CDR3 as printed); S10M derived by comparing it with the table's wild-type CDR3 ASSPTGGSPSPLH,9.51
20,[…] (CDR3 as printed); S2C derived by comparing it with the table's wild-type CDR3 ASSPTGGSPSPLH,5.16
21,[…] (CDR3 as printed); P11R derived by comparing it with the table's wild-type CDR3 ASSPTGGSPSPLH,9.69
22,[…] (CDR3 as printed); S3G derived by comparing it with the table's wild-type CDR3 ASSPTGGSPSPLH,9.71
23,[…] (CDR3 as printed); P9G derived by comparing it with the table's wild-type CDR3 ASSPTGGSPSPLH,0
24,[…] (CDR3 as printed); P9L derived by comparing it with the table's wild-type CDR3 ASSPTGGSPSPLH,1.13

row,Variant,enrichment
1,[…] (CDR3 as printed); S2F derived by comparing it with the table's wild-type CDR3 ASSPTGGSPSPLH,3.1
2,[…] (CDR3 as printed); S3N derived by comparing it with the table's wild-type CDR3 ASSPTGGSPSPLH,4.09
3,[…] (CDR3 as printed); S3E derived by comparing it with the table's wild-type CDR3 ASSPTGGSPSPLH,0
4,[…] (CDR3 as printed); P9C derived by comparing it with the table's wild-type CDR3 ASSPTGGSPSPLH,0
5,[…] (CDR3 as printed); T5P derived by comparing it with the table's wild-type CDR3 ASSPTGGSPSPLH,0
6,[…] (CDR3 as printed); S3K derived by comparing it with the table's wild-type CDR3 ASSPTGGSPSPLH,0
7,[…] (CDR3 as printed); P9M derived by comparing it with the table's wild-type CDR3 ASSPTGGSPSPLH,0
8,[…] (CDR3 as printed); S3P derived by comparing it with the table's wild-type CDR3 ASSPTGGSPSPLH,0
9,[…] (CDR3 as printed); T5S derived by comparing it with the table's wild-type CDR3 ASSPTGGSPSPLH,0
10,[…] (CDR3 as printed); P4N derived by comparing it with the table's wild-type CDR3 ASSPTGGSPSPLH,1.25
11,[…] (CDR3 as printed); S8D derived by comparing it with the table's wild-type CDR3 ASSPTGGSPSPLH,0
12,[…] (CDR3 as printed); S3V derived by comparing it with the table's wild-type CDR3 ASSPTGGSPSPLH,0
13,[…] (CDR3 as printed); P4Q derived by comparing it with the table's wild-type CDR3 ASSPTGGSPSPLH,3.21
14,[…] (CDR3 as printed); P9K derived by comparing it with the table's wild-type CDR3 ASSPTGGSPSPLH,0
15,[…] (CDR3 as printed); L12Y derived by comparing it with the table's wild-type CDR3 ASSPTGGSPSPLH,0
16,[…] (CDR3 as printed); P11K derived by comparing it with the table's wild-type CDR3 ASSPTGGSPSPLH,8.18
17,[…] (CDR3 as printed); P4I derived by comparing it with the table's wild-type CDR3 ASSPTGGSPSPLH,0.897
18,[…] (CDR3 as printed); S3R derived by comparing it with the table's wild-type CDR3 ASSPTGGSPSPLH,0
19,[…] (CDR3 as printed); T5Q derived by comparing it with the table's wild-type CDR3 ASSPTGGSPSPLH,0
20,[…] (CDR3 as printed); P4D derived by comparing it with the table's wild-type CDR3 ASSPTGGSPSPLH,0
21,[…] (CDR3 as printed); S10C derived by comparing it with the table's wild-type CDR3 ASSPTGGSPSPLH,0
22,[…] (CDR3 as printed); P11T derived by comparing it with the table's wild-type CDR3 ASSPTGGSPSPLH,0
23,[…] (CDR3 as printed); T5L derived by comparing it with the table's wild-type CDR3 ASSPTGGSPSPLH,9.97
24,[…] (CDR3 as printed); P9N derived by comparing it with the table's wild-type CDR3 ASSPTGGSPSPLH,0

row,Variant,enrichment
1,[…] (CDR3 as printed); S8T derived by comparing it with the table's wild-type CDR3 ASSPTGGSPSPLH,0
2,[…] (CDR3 as printed); P4W derived by comparing it with the table's wild-type CDR3 ASSPTGGSPSPLH,0
3,[…] (CDR3 as printed); P4A derived by comparing it with the table's wild-type CDR3 ASSPTGGSPSPLH,1.98
4,[…] (CDR3 as printed); S2G derived by comparing it with the table's wild-type CDR3 ASSPTGGSPSPLH,1.01
5,[…] (CDR3 as printed); S3M derived by comparing it with the table's wild-type CDR3 ASSPTGGSPSPLH,0
6,[…] (CDR3 as printed); L12Q derived by comparing it with the table's wild-type CDR3 ASSPTGGSPSPLH,0
7,[…] (CDR3 as printed); P9A derived by comparing it with the table's wild-type CDR3 ASSPTGGSPSPLH,4.97
8,[…] (CDR3 as printed); S8H derived by comparing it with the table's wild-type CDR3 ASSPTGGSPSPLH,0
9,[…] (CDR3 as printed); S2V derived by comparing it with the table's wild-type CDR3 ASSPTGGSPSPLH,1.18
10,[…] (CDR3 as printed); S8P derived by comparing it with the table's wild-type CDR3 ASSPTGGSPSPLH,0
11,[…] (CDR3 as printed); P9Y derived by comparing it with the table's wild-type CDR3 ASSPTGGSPSPLH,0
12,[…] (CDR3 as printed); P11A derived by comparing it with the table's wild-type CDR3 ASSPTGGSPSPLH,7.15
13,[…] (CDR3 as printed); P4S derived by comparing it with the table's wild-type CDR3 ASSPTGGSPSPLH,0.723
14,[…] (CDR3 as printed); P9R derived by comparing it with the table's wild-type CDR3 ASSPTGGSPSPLH,0
15,[…] (CDR3 as printed); P11D derived by comparing it with the table's wild-type CDR3 ASSPTGGSPSPLH,0
16,[…] (CDR3 as printed); P11C derived by comparing it with the table's wild-type CDR3 ASSPTGGSPSPLH,6.3
17,[…] (CDR3 as printed); T5Y derived by comparing it with the table's wild-type CDR3 ASSPTGGSPSPLH,15.6
18,[…] (CDR3 as printed); T5V derived by comparing it with the table's wild-type CDR3 ASSPTGGSPSPLH,19.2
19,[…] (CDR3 as printed); S3A derived by comparing it with the table's wild-type CDR3 ASSPTGGSPSPLH,9.82
20,[…] (CDR3 as printed); S10W derived by comparing it with the table's wild-type CDR3 ASSPTGGSPSPLH,0
21,[…] (CDR3 as printed); S3L derived by comparing it with the table's wild-type CDR3 ASSPTGGSPSPLH,0
22,[…] (CDR3 as printed); L12M derived by comparing it with the table's wild-type CDR3 ASSPTGGSPSPLH,2.27
23,[…] (CDR3 as printed); P11I derived by comparing it with the table's wild-type CDR3 ASSPTGGSPSPLH,1.23
24,[…] (CDR3 as printed); S10T derived by comparing it with the table's wild-type CDR3 ASSPTGGSPSPLH,0

# Same assay, conditions: with HLA-A*02:01 with peptide … (NLV 3-1, the original bait), tetramers 1 µg/mL, 30 min on ice, DP and SW gates expanded about 10 days between rounds ('two to three rounds of selection' in the Methods), gate SP: higher = more of the variant in the gate that binds the original peptide and not the novel one = retained original binding. Fold enrichment of the CDR3 variant in one FACS gate of a two-tetra, unresolved parent, parent is a CDR3 fragment, zero in all gates, scale: fold enrichment, numbering: …
row,Variant,enrichment
1,[…] (CDR3 as printed); S2L derived by comparing it with the table's wild-type CDR3 ASSPTGGSPSPLH,0

# Source: article PMC13397619
